Results as given in the DeepSol protein solubility set.

Assay: soluble on expression in E. coli; label from the status in PepcDB or PDB records

Sequence | soluble on expression in E. coli
MGDFREVLFYHSETKHYPYRFARSLGYLDWENQPNPFRFWEGTERLDLPLLKDPSHPYEALYDYGLVNTEEFNVKSLSKFLELALGLSAWKAIPGSRWSVRMNPSSGNLHPTECYVIIPHLGGLQGVFHYNPFLHALEKRADIPYELSQKIKDFFGTEGFILILTSIPWRESWKYGERAYRYCLLDTGHAIGSVRFSANLKGWKVKYLNALSDKDLEILLGFDRVQWVEGEEEFPELALFVFPKEVQDVPRTIPESIINEFKKLNFYGRPNVLSKERVIWEIIYRAIKETEKPRTEEFRVIYGNPPILNLVPSYMSAEEVIRKRRSGMAYDGKTYILRELFIHALDKTLPRDNYSPFDVEIGLPFVNLFIFVNRVENLPKGLYCFVRNEELLKDLKEITSSEFLWEKVFEDFPLYLLKTGDFREVAGFVACAQDIASDSAFSLGMISLFEPVLREEPWFYRNLHWEAGLIGQVLYLEATAHNLNGTGIGCFFDDAMHEVLGISDKTFQDLYHFTFGKAVEDPRIQTIEPYYHLKRERR | not soluble
MGEAYAEVFPDPDGISGHVKGVVDINAPPEKVWRIMTDCAAAKVMITTLAVCRIVEGDMARGWDIREHVTRRNLVFPGLRIVFRSDYEPYSRIKFKLVGGDLKVEQGEWKLQALDGGRRTRVLYDNRLAVDWPVPKALIREALRKDTPKVLMNLKRLCELEHHHHHH | not soluble
MGEISLGEVFHLKSGKYLKADERFEDGKFPYYGAGIESTSFVNEPNTKGDTLSMIANGYSIGNIRYHTIPWFNGTGGIAMEALKPNKTYVPFFYCALKYMQKDLKERFKRDESPFISLKLAGEIKVPFVKSFALQRKAGKIIYLLDK | not soluble
MGEVVKLVTFLGLGKYEESEIKINGNLLDGCVKNDDSQDIFCVRQSIFPLALIEYLNHIGKQVETIFFLTKTVKESKTWDECRRFLRSNIKDFEIPERRIFK | not soluble
MGEYYHATVNGVVEYGAFVDLSEHVSGLIHESTYSGDPDLAVDDDVIVHLSAVRDNGDLSFEFVDPEEYRTEQRSHAYERTTADAVGLEHHHHHH | soluble
MGFFDDKQDFLEETFAKYPPEGRRAAIMPLLRRVQQEEGWIRPERIEEIARLVGTTPTEVMGVASFYSYYQFVPTGKYHLQVCATLSCKLAGAEELWDYLTETLGIGPGEVTPDGLFSVQKVECLGSCHTAPVIQVNDEPYVECVTRARLEALLAGLRAGKRLEEIELPGKCGHHVHEVEVLEHHHHHH | soluble
MGGEDDELKGLLGLPEEETELDNLTEFNTAHNKRISTLTIEEGNLDIQRPKRKRKNSRVTFSEDDEIINPEDVDPSVGRFRNMVQTAVVPVKKKRVEGPGSLGLEESGSRRMQNFAFSGGLYGGLPPTHSEAGSQPHGIHGTALIGGLPMPYPNLAPDVDLTPVVPSAVNMNPAPNPAVYNPEAVNEPKKKKYAKEAWPGKKPTPSLLI | soluble
MGGFGLKYRPVPIKRVLPGSIAQESDLQEGDLILSINGQKISDIFDYRFLIADENLVLEVQKKNGEIWEIEIEKDEYEDLGIEFENLMIDDTKSCRNKCIFCFIDQLPKGMRETLYFKDDDSRLSFFMGNYVTLTNMSYDDIDRIIKYKMSPINVSVHTSNPELRVYMLRNKTAGDVMDKIKRLIEGGIKVNAQIVLVRGVNDGKELDRTLKDLSALYPGLNSISVVPVGITKYREGLYELKPFDMESSREVIKQVEAWQMELLSKYGSRIVFIADEFYIMAGLEIPDYCVYEDFPQIENGVGLVAMLKKEFDDYFEELELKLENKREVSIATGVSSYKYIKEMIDILENKYKNLYVHVYKIKNNFFGENVTVTGLLTGQDIERQLSGKNLGRELLLSESMLKSGERVFLDDYTVEMLEDKLKTKITIVRNNGKDFIEKVLGIVL | soluble
MGGGPALNRDSSRHARPFISSPVKTLAIIPAFNEAQAIGPVLGDLPDGWVDEVVVVNNASTDATKANARAAGATVVDEPQQGYGAACLRGIAYAETRQPDVVVFLDGDYSDHPEELPRLVEPIAADEADFVVGSRIRGDAEPGALLPQAQVGNRFACSLMARLWGADYTDLGPFRAIRFRDLLALDMQDETFGWTIEMQIRALEAGLRVEEVPVSYRRGIGPSKITGTLSGTVKASAKILWTIGRMAATTHRRAPRLRERVDRARTDAPTPNPGGLEHHHHHH | not soluble
MGGGRMGQHVETLVIGAGPAGLTTAYTLAKAGRGVTVLEMDETYVGGISRTVDYKGFKFDIGGHRFFSKSQEIVDLWNEILPDDFIDRPRLSRIYYREKFYAYPLKAFEALANLGVWTAAKCMASFGWAKLTPIAAPTTFHQWVRNQFGEKLFSIFFKTYTEKVWGMSCDEISADWASQRIKGLDLGAAIIDGVKRSLGLRGKAAEGGPKTLIESFRYPRKGPGMMWEACADKVMALGGDVRMGRKVDGLHFDKIAKLWTVAVTCADGRKEIYTADNVVSSAPIRELMQSISPTPISVFHAGELMYRDFITVVLIGKPQKELPDNWIYIHDPSVKVGRVQNFRSWSPEMIPDGVSTCLGLEYFCFEGDGLWVTSDEELVAQAKREIGKIGLMAPADVYDACVVRQHKAYPVYDDAYAEHVKMIRLDLKMHFPGLHLVGRNGMHKYNNQDHAMMTGLLTAENIIAGETLHDVWEVNEDAEYGEAGVSGARQALRSERAVPTKVAALEHHHHHH | not soluble
MGGLQQRCLWEVVTPRLSGAASLNGEQRADVCVIGAGFTGLSAALHLLEAGRSVCVLEAYEVGHGGSGRNVGLINAGTWIPPDEVVATLGAEQGEKLNAVLGRAPALVMETIERLGIDCQLRREGTLHMSHNASGVADLQRRHAQWTRRGAPLELLTGAACHEACGTRRISAALLDRRAGTLNPMAYSRGLATAVVQRGGQLYQRSPVLALERQGALWAVRSSAGAVLAEQVVIASNAYTEGEWTNLRRHFFPGYYYQVASAPLHGAAAERILPHGQGSWDTRTVLSSIRRDAQGRLLLGSLGNGANKPAWFLRQWADRIQSHYFPDLGQVNWEYSWTGCIAFTPDHLMRLFEPAEGLLAVTGYNGRGVTTGTVVGKAFADYLLSGERATLPLPFSDMKPVPAARLRSCAYEMGFSLYHAGQCLRVVLLEHHHHHH | soluble
MGGMHAHVILAAGQGTRMRSRLPKVLHPLLGKPMLLYALEAALALKPERLVVVVGHGGEKVVEALEGYPVEVAWQKEQLGTAHALLQAEGLLRDFPGPFLVTQGDTPLLSPRTLEALLRRVREGAGMALLTAELPDPTGYGRILREGEEVLGNVEEKDAPPEVRAIREVNAGAYAFDGFLFQALKEVRNENAAREYYLPDLIAIYRAHGRRVLAVRGVAEEALGVNTREELARVEGVLLRRLRAEWMGKGVRMILPETIYLEPSVELAPDVTLWPGAVLKGKTRIGEGCEVGPYAVLEDTVLEPGAKVLAHTVAQGAHLHPGASAGPFARLRPGAVLMEEVHVGNFVEVKNSLLHKGVKAGHLAYLGDAEVGEGTNIGAGVITANYDGKRKHKTEIGKKAFIGSNSVLVAPVRVGDRALVGAGSVITQDVPEGALAVARERQKNLEGYALRKLGEG | soluble
MGGMPITSFKFLYYFQIDDGDEETDIYLSPKEKATQTFSIKYNNNNTPTFSGDLRAGEKYTFDFHINFYDFATITIVQKREGEEELRIEYLNIPVEKRSEDHFERHF | not soluble
MGGSHHHHHHGMASALKEAMVQAEEAAAEITRKLEKQEKKRLKKEKKRLAALALASSENSSSTPEECEEMSEKPKKKKKQKPQEVPQENGMEDPSISFSKPKKKKSFSKEELMSSDLEETAGSTSIPKRKKSTPKEETVNDPEEAGHRSGSKKKRKFSKEEPVSSGPEEAVGKSSSKKKKKFHKASQED | not soluble
MGGSHHHHHHGMASALVRISKPKTFQAYLDDCHRRYSCAHCRAHLANHDDLISKSFQGSQGRAYLFNSVVNVGCGPAEERVLLTGLHAVADIHCENCKTTLGWKYEQAFESSQKYKEGKYIIELNHMIKDNGWD | not soluble
MGGSHHHHHHGMASGSAGLSRLHGLFAVYKPPGLKWKHLRDTVELQLLKGLNARKPPAPKQRVRFLLGPMEGSEEKELTLTATSVPSFINHPLVCGPAFAHLKVGVGHRLDAQASGVLVLGVGHGCRLLTDMYNAHLTKDYTVRGLLGKATDDFREDGRLVEKTTYDHVTREKLDRILAVIQGSHQKALVMYSNLDLKTQEAYEMAVRGLIRPMNKSPMLITGIRCLYFAPPEFLLEVQCMHETQKELRKLVHEIGLELKTTAVCTQVRRTRDGFFTLDSALLRTQWDLTNIQDAIRAATPQVAAELEKSLSPGLDTKQLPSPGWSWDSQGPSSTLGLERGAGQ | not soluble
MGGSHHHHHHGMASGSPPTQPSPASDSGSGYVPGSVSAAFVTCPNEKVAKEIARAVVEKRLAACVNLIPQITSIYEWKGKIEEDSEVLMMIKTQSSLVPALTDFVRSVHPYEVAEVIALPVEQGNFPYLQWVRQVTESVSDSITVLP | soluble
MGGSHHHHHHGMASPLLTQQIQDEDDQYSLVASLDNVRNLSTILKAIHFREHATCFATKNGIKVTVENAKCVQANAFIQAGIFQEFKVQEESVTFRINLTVLLDCLSIFGSSPMPGTLTALRMCYQGYGYPLMLFLEEGGVVTVCKITTQEPEETLDFDFCSTNVINKIILQSEGLREAFSELDMTSEVLQITMSPDKPYFRLSTFGNAGSSHLDYPKDSDLMEAFHCNQTQVNRYKISLLKPSTKALVLSCKVSIRTDNRGFLSLQYMIRNEDGQICFVEYYCCPDEEVPESES | not soluble
MGGVKKNALLDYVFTKALENLTALFTQLNITAVKEIIRPLETGHEAYFVLPIDARTLKVLMIELEESIPLARLWDLDVFNAKGNLLSRTDFDLSPRTCLVCGENAKICARTHKHEIDEIVDKIQSLAQNHDFAEHIGEQVYLALIQEARLSPKPGLVDAINNGSHKDMNLHTFEQSAISLKPFFTQFVLKGMMTAHLSENQILSEIRPLGLLAEKAMFKVTDGVNTHKGAIFSFGLVCTAIGRLLAQKSLVQSAVDFDVKLICSLVAQFTQGLTDELKNYPEHLPSTAGVRLFQKYGLTGVRGEAENGFNLIQTLLPQFDEYHQLEWEHRLLILLLNLMAINSDTNVVHRGGLAGLYFIQQTAQDLLTDQHLVTDKTALTQALMKFDTACIERNLSSGGSADLLALTIFFLSFRGN | not soluble
MGHGEEPLTATYKTQRPPWIGLWSDREYKGRADWWKEPGLEDSVTRSGKLRLYRARFREEDPDWYDPKVKDGESLAGPFGLDSKKTKNLTKKGDQPGELSEFQNKVYEGSHQFKAIAEKFGISKEHPGLSVSPTLSDNMLTPKDELGRNAVLPNSWYPAGPRFFDSPLNEGSFWKGLAAAKYAGILLAPYTMLEIRALNTVSVSEFSPRTYMKRYLQLAPFPLAVAFAWGFSLSAASSIRHKDDVHNHWFASVAVGSTVATMKSNVALGTTAAIFTAILGAFWQYQRHSETGLQGMTAHPQSAGIWGGPLLWQKMQLGNADVPTTRY | not soluble
MGHHHHHHENLYFQSHLYFQSHERLSEKKIKNLLTSKQQRQQYEIKQRSMLRHLAELRRHSRFRRLCTKPASSSMPASTSSVDRRTTRRSTSQTSLSPSNSSGYGSVFGCEEHDVDKIPSLNGFAKLKRRRSSCVGAPTPNSKRSKNNMGVIAKRPPKGEYVVERIECVEMD | not soluble
MGHHHHHHGGHMSLIDLHIHSNYSDGQGSVEEIARRAKERGLKAIAIVDHSIELPFGLTEKKARMREIEIENAASLYGIKIYSGIECSINAAGEIVLPDFDFDFIIASVHEFVYGQAYYERVIRCLESHDVDVLGHPFSPLFGFDGRLAEMDEKLLDVVEERGVAVELNSSHKSPQDEFLQLCRDRKIAYSIGSDAHSLSGVGEVGWSVEKAKRYMAGAKLFTPEGGS | soluble
MGHHHHHHGGHMSLRSYLGSISTSKTEVNSMKMHVLKLLIPTMALLLSACASLPPELGNPDDKSVVTQYSAWLERDPATQSPVRMGGVVANISNQKDRTRVELVNLPIDSAGRPNIHQEPQGRFVAYVPGFLDPITYGEGRLLTLYGTTAPSEQGKVGDYEHTYPVMNAQGYHLWRVEERVEVDDIGPYMFPCRGFYCWPRTMPERDGKIIQEVKEGGS | not soluble
